Blank lines part the entries; values can stand above or below the substance they belong to.
How the values were obtained:
[1] = biological target: biotin-labeled YxxQ diheptad peptide (human) (UniProt Q96PK6); test: ELISA; settings: domain or fragment
[2] = biological target: CoAA YxxQ repeats, 307-545 (UniProt Q96PK6); test: plate-coated GST-YxxQ, biotin peptide, streptavidin-HRP; settings: reference: unphosphorylated CTD peptide
CoAA YxxQ repeats, 307-545, sequence (Q96PK6 whole entry, looked up, tested part not stated): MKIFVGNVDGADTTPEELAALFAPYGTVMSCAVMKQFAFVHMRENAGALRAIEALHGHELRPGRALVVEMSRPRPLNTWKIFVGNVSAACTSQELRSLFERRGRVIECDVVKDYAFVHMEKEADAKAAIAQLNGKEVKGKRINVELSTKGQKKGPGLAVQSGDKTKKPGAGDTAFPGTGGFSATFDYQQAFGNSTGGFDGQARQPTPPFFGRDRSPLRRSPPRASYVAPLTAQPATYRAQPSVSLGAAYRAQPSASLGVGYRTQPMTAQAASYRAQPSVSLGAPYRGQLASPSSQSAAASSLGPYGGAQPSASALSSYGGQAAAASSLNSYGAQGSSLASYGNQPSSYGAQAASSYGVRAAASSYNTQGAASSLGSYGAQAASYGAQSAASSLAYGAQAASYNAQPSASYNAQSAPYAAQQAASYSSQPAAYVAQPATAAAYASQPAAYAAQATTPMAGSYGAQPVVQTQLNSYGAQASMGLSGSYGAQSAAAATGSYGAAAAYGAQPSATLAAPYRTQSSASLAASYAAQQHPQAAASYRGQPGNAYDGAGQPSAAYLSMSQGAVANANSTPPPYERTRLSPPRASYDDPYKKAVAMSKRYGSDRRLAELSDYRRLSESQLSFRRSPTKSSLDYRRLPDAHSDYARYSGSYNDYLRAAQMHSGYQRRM

GST-CTD-AA (not phosphorylated, coated on plate), sequence (P04050 whole entry, looked up): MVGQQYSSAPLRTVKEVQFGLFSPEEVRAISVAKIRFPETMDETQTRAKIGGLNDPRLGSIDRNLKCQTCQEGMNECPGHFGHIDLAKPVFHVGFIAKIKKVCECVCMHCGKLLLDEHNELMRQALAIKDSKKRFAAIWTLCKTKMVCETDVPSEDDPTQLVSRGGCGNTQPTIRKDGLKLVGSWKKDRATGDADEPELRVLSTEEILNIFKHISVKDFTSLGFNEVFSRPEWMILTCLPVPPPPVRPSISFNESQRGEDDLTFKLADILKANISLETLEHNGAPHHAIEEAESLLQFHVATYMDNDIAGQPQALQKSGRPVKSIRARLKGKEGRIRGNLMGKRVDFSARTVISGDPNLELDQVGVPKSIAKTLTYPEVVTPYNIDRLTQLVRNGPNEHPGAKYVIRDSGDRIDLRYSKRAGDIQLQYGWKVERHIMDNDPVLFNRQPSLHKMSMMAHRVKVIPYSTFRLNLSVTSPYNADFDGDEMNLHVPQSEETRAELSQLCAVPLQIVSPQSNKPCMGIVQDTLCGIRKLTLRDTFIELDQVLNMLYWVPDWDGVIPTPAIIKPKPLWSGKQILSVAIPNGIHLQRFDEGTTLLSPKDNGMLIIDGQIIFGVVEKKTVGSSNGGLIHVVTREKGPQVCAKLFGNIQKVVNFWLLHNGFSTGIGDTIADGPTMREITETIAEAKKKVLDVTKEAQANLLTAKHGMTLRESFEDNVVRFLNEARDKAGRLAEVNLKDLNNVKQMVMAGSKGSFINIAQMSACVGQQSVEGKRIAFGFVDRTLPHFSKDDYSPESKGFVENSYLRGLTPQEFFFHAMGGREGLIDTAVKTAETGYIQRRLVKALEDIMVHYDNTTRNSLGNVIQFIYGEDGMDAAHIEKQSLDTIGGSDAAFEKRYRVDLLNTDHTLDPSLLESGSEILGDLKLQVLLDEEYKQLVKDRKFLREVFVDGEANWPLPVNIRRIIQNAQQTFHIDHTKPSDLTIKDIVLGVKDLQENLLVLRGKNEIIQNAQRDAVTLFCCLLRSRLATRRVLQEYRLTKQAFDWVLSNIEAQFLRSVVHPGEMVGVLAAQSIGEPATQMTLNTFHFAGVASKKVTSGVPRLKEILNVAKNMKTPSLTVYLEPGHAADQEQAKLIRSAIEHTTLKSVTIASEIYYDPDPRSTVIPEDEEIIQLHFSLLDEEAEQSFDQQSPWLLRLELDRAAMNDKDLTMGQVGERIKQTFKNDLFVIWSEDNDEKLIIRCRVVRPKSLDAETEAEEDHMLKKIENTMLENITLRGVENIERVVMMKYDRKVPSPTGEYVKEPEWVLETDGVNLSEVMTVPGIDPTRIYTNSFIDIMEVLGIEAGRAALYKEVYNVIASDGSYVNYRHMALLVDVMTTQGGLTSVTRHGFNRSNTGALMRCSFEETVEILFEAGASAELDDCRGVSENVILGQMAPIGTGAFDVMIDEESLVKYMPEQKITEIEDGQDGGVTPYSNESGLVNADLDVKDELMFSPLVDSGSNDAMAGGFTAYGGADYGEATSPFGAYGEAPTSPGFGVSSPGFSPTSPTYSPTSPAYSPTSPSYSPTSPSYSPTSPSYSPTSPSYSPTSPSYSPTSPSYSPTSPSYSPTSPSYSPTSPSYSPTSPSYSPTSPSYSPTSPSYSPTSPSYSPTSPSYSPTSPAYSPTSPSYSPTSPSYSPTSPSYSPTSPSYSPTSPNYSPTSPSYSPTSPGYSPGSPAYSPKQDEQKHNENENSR

EC50 [1]: 2430 nM
Substance: GST-CTD-AA (not phosphorylated, coated on plate) (from UniProt P04050)

EC50 ([2]; sites S2): stronger; reference 1066
Substance: RNA polymerase II largest subunit CTD pSer2 CTD peptide

EC50 ([2]; sites S5): stronger; reference 1066
Substance: RNA polymerase II largest subunit CTD pSer5 CTD peptide
